Key:
[1] = test system: Saccharomyces cerevisiae; test: protein stability index of tFT-peptide fusion in wild type (PSI (0-1 scale)); higher = more stable (slower turnover); settings: genetic background: wild type
Procedure: (§1)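 MPS profiling in S. cerevisiae of two library types built from selected 12-aa C-degron peptides (IN1, IN2, LN1, LN3, VN2, R1-R5, W1-W3, Atg1 and Rpa12 C-termini): saturation mutagenesis libraries and C-terminal +1 capping libraries (13 aa). Each peptide is fused to the C-terminus of a sfGFP-mCherry timer, after a GGGS linker. Cells are FACS-sorted into 8 mCherry/sfGFP bins and sequenced. PSI runs from 0 (unstable) to 1 (stable), measured once in wild type and in the das1Δ or doa10Δ background.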

[2] = test system: Saccharomyces cerevisiae; test: protein stability index of tFT-peptide fusion in deletion strain of DAS1 (PSI (0-1 scale)); higher = more stable (slower turnover)
Procedure: as §1
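Throughout, for protein stability index of tFT-peptide fusion in deletion strain of DAS1: PSI is a weighted mean of each variant's read distribution over the sorted stability bins, computed only for variants having over 10 reads in total.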
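Throughout, for protein stability index of tFT-peptide fusion in wild type: PSI derived as read-weighted mean over the 8 sorting bins, only variants exceeding 10 total reads kept, mCherry placed adjacent to the peptide and sfGFP distal.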

Sequence	protein stability index [1]	protein stability index [2]
PSLAWSFWRVVG	0.0943	0.724
RVIQPLPVQFLN	0.0531	0.576
KKHKKGQKQKIA	0.128	0.597
FSMRWTFRYWVA	0.202	0.545
ARWRVGLWRGAM	0.531	0.702
VRPAVGGWRLVG	0.106	0.68
KKHKKGQDQKIN	0.616	0.574
ARWRRGLWRGAS	0.55	0.692
RLIAPLPVQFLN	0.0614	0.738
WSLAASFWRVVG	0.116	0.668
KKHKEGQKQKIN	0.12	0.581
VRGAVGGWRLWG	0.534	0.717
LVVYLGCVACIN	0.135	0.192
MSMRWTFRYWVN	0.0515	0.536
KKRKKGQKQKIN	0.111	0.571
CTSCSYKFRTNN	0.267	0.686
PSLAASFWRVWG	0.38	0.696
RLIQPLTVQFLN	0.065	0.608
PDMRNHLIKLLN	0.0863	0.757
KKHKKGQPQKIN	0.0925	0.6
PSLAASFWRVGG	0.676	0.677
CTPCGYKFRTNN	0.248	0.686
CTSCGYKFMTNN	0.477	0.676

Sequence	protein stability index [1]	protein stability index [2]
KKYKKGQKQKIN	0.0672	0.613
CTSCGYKFRTNQ	0.498	0.691
LKILRQKMNHNN	0.239	0.688
YRWRVGLWRGAS	0.223	0.66
CTSCGYKMRTNN	0.227	0.669
RLIQPLPVQFVN	0.0426	0.598
PDKRNHLIKLFN	0.346	0.551
LVVYLSMVACIN	0.0159	0.0257
CTSCGYKFETNN	0.656	0.707
RLIQPLPVQFRN	0.533	0.609
CTSKGYKFRTNN	0.269	0.667
LVVYLSCVACLN	0.0163	0.0375
FVMRWTFRYWVN	0.0377	0.272
PSHAASFWRVVG	0.163	0.697
CTECGYKFRTNN	0.357	0.678
KKHKKGFKQKIN	0.0758	0.589
LKILEQKMNHQN	0.473	0.66
TTSCGYKFRTNN	0.255	0.677
PDYRNHLIKLLN	0.0727	0.607
VRGAVGGARLVG	0.618	0.673
PDKYNHLIKLLN	0.0777	0.59
RLIQPLPVQFMN	0.0175	0.614
PDKREHLIKLLN	0.158	0.716
